Experimental findings from the Human Domainome abundance scans (Beltran et al. 2025) are described below.

± gives the uncertainty stated by the source.

B1: Transitional endoplasmic reticulum ATPase, residues 26 to 106; numbered along this chain, P55072 (parent)
chain: LIVDEAINEDNSVVSLSQPKMDELQLFRGDTVLLKGKKRREAVCIVLSDDTCSDEKIRMNRVVRNNLRVRLGDVISIQPCP

The variants in this data set derive from B1. In words: abundance fitness (aPCA) (normalised: wild type 0, dead -1); higher = more abundant; growth selection in yeast, the domain comes from the species named. As to conditions: Homo sapiens.
As for M59G, the abundance fitness was -1.01 ± 0.18.
The result for M59A reads -0.258 ± 0.086; that for M59I, -0.002 ± 0.14.
The result for M59C reads -0.066 ± 0.088.
As to M59P, the abundance fitness is -1.12 ± 0.32.
In the case of M59K, the abundance fitness was -1.03 ± 0.21.
The result for M59E reads -0.768 ± 0.43; that for M59F, -0.333 ± 0.11.
The result for D50P reads -0.105 ± 0.11; that for D50H, -0.021 ± 0.16.
For the variant D50N, the abundance fitness is -0.105 ± 0.16.
The result for D50Q reads -0.277 ± 0.2; that for D50M, 0.025 ± 0.1.
Turning to D50K, the abundance fitness was -0.105 ± 0.18.
The result for D50L reads -0.146 ± 0.058.
The result for D50R reads -0.057 ± 0.054; that for D50I, -0.059 ± 0.1.
Turning to D50E, the abundance fitness was -0.023 ± 0.081.
The result for D50T reads -0.037 ± 0.087.
The result for D50F reads -0.214 ± 0.13; that for D50V, -0.12 ± 0.044.
The result for D50G reads 0.031 ± 0.046.
As for D50Y, the abundance fitness was -0.246 ± 0.11.
D50A: the abundance fitness was -0.023 ± 0.056.
For the variant C44K, the abundance fitness was determined as 0.057 ± 0.075.
The result for C44E reads -0.559 ± 0.18.
With C44N, the abundance fitness is -0.172 ± 0.25.
Regarding C44R, the abundance fitness was -0.104 ± 0.053.
The result for C44Y reads -0.091 ± 0.13; that for C44G, -0.006 ± 0.051; that for C44Q, 0.106 ± 0.083.
The result for C44F reads -0.074 ± 0.091.
On to C44T, for which the abundance fitness is -0.066 ± 0.07.
The result for C44M reads 0.085 ± 0.077; that for C44A, -0.017 ± 0.062.
C44I: the abundance fitness was -0.189 ± 0.099.
As to C44L, the abundance fitness is -0.02 ± 0.034.
The result for C44D reads -0.707 ± 0.14; that for C44S, -0.032 ± 0.069.
The result for C44P reads -0.969 ± 0.14; that for C44V, -0.026 ± 0.074.
The result for V43R reads 0.07 ± 0.053.
For V43A, the abundance fitness was -0.026 ± 0.064.
With V43Y, the abundance fitness stood at 0.072 ± 0.14.
For V43Q, the abundance fitness is 0.147 ± 0.12.
The result for V43S reads -0.052 ± 0.076.
The result for V43I reads -0.038 ± 0.097.
The result for V43T reads -0.068 ± 0.076.
Take V43L: the abundance fitness was -0.099 ± 0.066.
The result for V43C reads -0.012 ± 0.1; that for V43P, -0.26 ± 0.085.
The result for V43M reads 0.098 ± 0.14; that for V43K, -0.006 ± 0.13; that for V43G, -0.289 ± 0.06.
Regarding V43W, the abundance fitness is 0.03 ± 0.14.
The result for V43N reads -0.176 ± 0.19; that for V43D, -0.093 ± 0.11.
The result for V43E reads 0.063 ± 0.089.
The result for D54R reads -0.205 ± 0.038.
Turning to D54Q, the abundance fitness was -0.279 ± 0.1.
The result for D54M reads 0.006 ± 0.12; that for D54P, -0.116 ± 0.072.
D54C: the abundance fitness was -0.089 ± 0.11.
On to D54I, for which the abundance fitness was -0.106 ± 0.14.
The result for D54W reads -0.289 ± 0.07.
The result for D54K reads 0.08 ± 0.085; that for D54A, -0.076 ± 0.058; that for D54V, -0.016 ± 0.049.
The result for D54N reads -0.072 ± 0.089; that for D54H, -0.073 ± 0.18.
Regarding D54G, the abundance fitness is -0.075 ± 0.044.
Consider D54E, for which the abundance fitness is -0.062 ± 0.079.
With D54T, the abundance fitness was found to be 0.218 ± 0.095.
The result for D54F reads -0.112 ± 0.099.
The result for A42H reads 0.027 ± 0.039.
Regarding A42D, the abundance fitness was determined as 0.028 ± 0.12.
Consider A42V, for which the abundance fitness was -0.065 ± 0.057.
The result for A42K reads 0.041 ± 0.13.
The result for A42Y reads -0.045 ± 0.22; that for A42G, -0.179 ± 0.049; that for A42P, -0.825 ± 0.15.
The result for A42L reads -0.049 ± 0.056.
On to A42S, for which the abundance fitness is 0.085 ± 0.069.
On to A42Q, for which the abundance fitness was -0.003 ± 0.096.
Take A42F: the abundance fitness was 0.037 ± 0.095.
Turning to A42M, the abundance fitness is -0.018 ± 0.065.
The result for A42N reads -0.147 ± 0.18.
The result for A42R reads 0.028 ± 0.051; that for A42I, -0.258 ± 0.16.
The result for A42E reads -0.117 ± 0.093; that for A42C, 0.116 ± 0.15.
As for E55Y, the abundance fitness is -0.029 ± 0.099.
The result for E55A reads -0.019 ± 0.061; that for E55M, -0.143 ± 0.097.
For E55P, the abundance fitness was -0.075 ± 0.083.
For the variant E55Q, the abundance fitness amounted to 0.003 ± 0.084.
The result for E55K reads -0.03 ± 0.11; that for E55T, -0.03 ± 0.12.
The result for E55W reads -0.148 ± 0.058.
For the variant E55S, the abundance fitness amounted to 0.01 ± 0.056.
The result for E55H reads -0.041 ± 0.11; that for E55G, 0.018 ± 0.043; that for E55V, -0.053 ± 0.046.
As for E55L, the abundance fitness is 0.003 ± 0.059.
The result for E55F reads -0.052 ± 0.09.
The result for E55D reads -0.174 ± 0.13.
For E55C, the abundance fitness turned out to be 0.002 ± 0.068.
The result for R40L reads -0.033 ± 0.056; that for R40N, -0.075 ± 0.12; that for R40D, -0.085 ± 0.099.
As for R40Y, the abundance fitness stood at 0.073 ± 0.17.
The result for R40S reads -0.061 ± 0.054; that for R40I, -0.046 ± 0.13.
R40C: the abundance fitness is -0.071 ± 0.12.
R40A: the abundance fitness worked out at 0.097 ± 0.086.
The result for R40E reads -0.051 ± 0.13; that for R40Q, -0.039 ± 0.15; that for R40T, 0.086 ± 0.082.
With R40F, the abundance fitness is -0.006 ± 0.13.
Consider R40V, for which the abundance fitness came out at 0.027 ± 0.045.
The result for R40P reads -0.122 ± 0.11.
The result for R40G reads 0.107 ± 0.055; that for R40H, -0.139 ± 0.11; that for R40M, -0.077 ± 0.12.
The result for R40W reads -0.059 ± 0.16; that for R58T, -0.515 ± 0.13; that for R58W, -0.625 ± 0.15.
For the variant R58I, the abundance fitness was -0.089 ± 0.2.
The result for R58F reads -0.216 ± 0.19; that for R58Q, -0.185 ± 0.14.
The result for R58C reads -0.255 ± 0.13.
The result for R58H reads -0.246 ± 0.25; that for R58Y, -0.093 ± 0.4.
On to R58V, for which the abundance fitness is -0.521 ± 0.1.
R58K: the abundance fitness was -0.013 ± 0.12.
The result for R58S reads -0.253 ± 0.062; that for R58G, -0.156 ± 0.056.
On to R58M, for which the abundance fitness is -0.068 ± 0.095.
The result for R58P reads -0.927 ± 0.32.
The result for R58E reads -0.376 ± 0.098; that for R58L, -0.037 ± 0.072.
The result for V46L reads -0.183 ± 0.046.
Regarding V46Y, the abundance fitness is -0.911 ± 0.23.
In the case of V46S, the abundance fitness was -0.493 ± 0.078.
The result for V46K reads -0.528 ± 0.21; that for V46C, -0.048 ± 0.095; that for V46R, -0.951 ± 0.15.
In the case of V46T, the abundance fitness is -0.147 ± 0.085.
The result for V46W reads -0.74 ± 0.19.
Take V46N: the abundance fitness is -0.749 ± 0.21.
The result for V46I reads -0.175 ± 0.07.
With V46D, the abundance fitness was -0.804 ± 0.17.
The result for V46E reads -0.649 ± 0.1; that for V46F, -0.688 ± 0.15.
The result for V46P reads -0.439 ± 0.1.
On to V46M, for which the abundance fitness was -0.376 ± 0.12.
As to R39S, the abundance fitness came to 0.016 ± 0.05.
In the case of R39P, the abundance fitness was -0.079 ± 0.096.
R39T: the abundance fitness is 0.013 ± 0.1.
R39Q: the abundance fitness was determined as 0.079 ± 0.12.
Take R39Y: the abundance fitness is -0.136 ± 0.1.
As for R39W, the abundance fitness is -0.08 ± 0.094.
On to C52I, for which the abundance fitness was -0.091 ± 0.2.
The result for C52E reads -0.416 ± 0.085; that for C52D, -0.433 ± 0.11; that for C52Y, -0.439 ± 0.12.
For C52A, the abundance fitness was -0.253 ± 0.069.
